Experimental data taken from publication PMC3544828.

What was measured:
[1] = molecular target: T1, CcpA (Staphylococcus aureus COL) (UniProt Q5HF38); experiment: EMSA; conditions: Room temperature, 15 min, 250 fmol each of specific and non-specific probe; protein stock in 10 mM Tris-HCl pH 7.5, 100 mM NaCl, 10% glycerol (binding buffer …)
T1 sequence: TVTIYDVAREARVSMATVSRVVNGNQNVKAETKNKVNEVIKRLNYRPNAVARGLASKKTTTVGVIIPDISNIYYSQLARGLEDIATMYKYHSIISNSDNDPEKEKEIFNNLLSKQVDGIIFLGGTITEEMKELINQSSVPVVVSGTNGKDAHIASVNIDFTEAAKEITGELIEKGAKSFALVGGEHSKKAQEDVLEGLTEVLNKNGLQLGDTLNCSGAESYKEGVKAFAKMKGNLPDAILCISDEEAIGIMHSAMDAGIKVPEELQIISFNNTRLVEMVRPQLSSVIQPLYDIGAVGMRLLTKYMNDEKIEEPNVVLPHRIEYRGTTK

[2] = molecular target: T2, Rex (Staphylococcus aureus COL) (UniProt Q5HEF5); experiment: EMSA; conditions: Room temperature, 15 min, 250 fmol each of specific and non-specific probe; protein stock in 10 mM Tris-HCl pH 7.5, 100 mM NaCl, 10% glycerol (binding buffer …)
T2 sequence: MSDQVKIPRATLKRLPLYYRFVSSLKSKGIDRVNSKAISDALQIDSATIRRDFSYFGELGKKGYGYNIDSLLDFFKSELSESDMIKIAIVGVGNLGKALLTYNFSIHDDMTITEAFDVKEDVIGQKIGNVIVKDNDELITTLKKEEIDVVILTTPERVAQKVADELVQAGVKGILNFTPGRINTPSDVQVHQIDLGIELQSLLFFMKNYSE

Sequence | binding [1] | binding [2]
CGCATAACTTAAAAGGTCATGTGTCATCCGCTTTTAAGTTTGTGATTTATTTCACATATAAAATGTAACATGCATTAAGTACTGGGTCAATATTAAATTGTGATTTATTTCACATTTTATTTTAATTTTTACACCTTTTTAATTTGTATACGATTACATCTTAGATGTCTTTAGTCTTCGTACTTCGCCAGTGATTATTTACAC (double strand) [Pldh1 promoter fragment] | no binding | binds
CTCCCCTTTTCATCATTTATAACTATTATACATGAAACATTATCCAAATAATTACATTAGTTTTCAAAGCAGATACTTTTCCACCAAAAAAGATGAAATAATCACTAAGTTTCATTAAATTTGTCTATTTTGAAAACCCTTACATTTATAATGACATAATTACTTAAATGATTACAAGCAAAAGAATTGATAATTTTACACTTAATC (double strand) [ProcD2 promoter fragment] | binds | –
